Measurements from paper PMC12733864 (International Journal of Molecular Sciences, 2025).

Target: T1, recombinant D III domain of the WNV structural E glycoprotein (West Nile virus; strain of the …, UniProt Q9Q6P4)
T1 construct: also called recombinant DIII protein; recombinant analog of D III of WNV glycoprotein E
Test: BLI; Octet K2, NTA biosensors loaded with recombinant DIII (20 ug/mL); antibodies in solution at five concentrations from 10.4 to 166.4 nM; PBS; global fit of the 1:1 model; triplicate
Details: both partners purified

T1 sequence (Q9Q6P4 whole entry, looked up, the tested form may be a part): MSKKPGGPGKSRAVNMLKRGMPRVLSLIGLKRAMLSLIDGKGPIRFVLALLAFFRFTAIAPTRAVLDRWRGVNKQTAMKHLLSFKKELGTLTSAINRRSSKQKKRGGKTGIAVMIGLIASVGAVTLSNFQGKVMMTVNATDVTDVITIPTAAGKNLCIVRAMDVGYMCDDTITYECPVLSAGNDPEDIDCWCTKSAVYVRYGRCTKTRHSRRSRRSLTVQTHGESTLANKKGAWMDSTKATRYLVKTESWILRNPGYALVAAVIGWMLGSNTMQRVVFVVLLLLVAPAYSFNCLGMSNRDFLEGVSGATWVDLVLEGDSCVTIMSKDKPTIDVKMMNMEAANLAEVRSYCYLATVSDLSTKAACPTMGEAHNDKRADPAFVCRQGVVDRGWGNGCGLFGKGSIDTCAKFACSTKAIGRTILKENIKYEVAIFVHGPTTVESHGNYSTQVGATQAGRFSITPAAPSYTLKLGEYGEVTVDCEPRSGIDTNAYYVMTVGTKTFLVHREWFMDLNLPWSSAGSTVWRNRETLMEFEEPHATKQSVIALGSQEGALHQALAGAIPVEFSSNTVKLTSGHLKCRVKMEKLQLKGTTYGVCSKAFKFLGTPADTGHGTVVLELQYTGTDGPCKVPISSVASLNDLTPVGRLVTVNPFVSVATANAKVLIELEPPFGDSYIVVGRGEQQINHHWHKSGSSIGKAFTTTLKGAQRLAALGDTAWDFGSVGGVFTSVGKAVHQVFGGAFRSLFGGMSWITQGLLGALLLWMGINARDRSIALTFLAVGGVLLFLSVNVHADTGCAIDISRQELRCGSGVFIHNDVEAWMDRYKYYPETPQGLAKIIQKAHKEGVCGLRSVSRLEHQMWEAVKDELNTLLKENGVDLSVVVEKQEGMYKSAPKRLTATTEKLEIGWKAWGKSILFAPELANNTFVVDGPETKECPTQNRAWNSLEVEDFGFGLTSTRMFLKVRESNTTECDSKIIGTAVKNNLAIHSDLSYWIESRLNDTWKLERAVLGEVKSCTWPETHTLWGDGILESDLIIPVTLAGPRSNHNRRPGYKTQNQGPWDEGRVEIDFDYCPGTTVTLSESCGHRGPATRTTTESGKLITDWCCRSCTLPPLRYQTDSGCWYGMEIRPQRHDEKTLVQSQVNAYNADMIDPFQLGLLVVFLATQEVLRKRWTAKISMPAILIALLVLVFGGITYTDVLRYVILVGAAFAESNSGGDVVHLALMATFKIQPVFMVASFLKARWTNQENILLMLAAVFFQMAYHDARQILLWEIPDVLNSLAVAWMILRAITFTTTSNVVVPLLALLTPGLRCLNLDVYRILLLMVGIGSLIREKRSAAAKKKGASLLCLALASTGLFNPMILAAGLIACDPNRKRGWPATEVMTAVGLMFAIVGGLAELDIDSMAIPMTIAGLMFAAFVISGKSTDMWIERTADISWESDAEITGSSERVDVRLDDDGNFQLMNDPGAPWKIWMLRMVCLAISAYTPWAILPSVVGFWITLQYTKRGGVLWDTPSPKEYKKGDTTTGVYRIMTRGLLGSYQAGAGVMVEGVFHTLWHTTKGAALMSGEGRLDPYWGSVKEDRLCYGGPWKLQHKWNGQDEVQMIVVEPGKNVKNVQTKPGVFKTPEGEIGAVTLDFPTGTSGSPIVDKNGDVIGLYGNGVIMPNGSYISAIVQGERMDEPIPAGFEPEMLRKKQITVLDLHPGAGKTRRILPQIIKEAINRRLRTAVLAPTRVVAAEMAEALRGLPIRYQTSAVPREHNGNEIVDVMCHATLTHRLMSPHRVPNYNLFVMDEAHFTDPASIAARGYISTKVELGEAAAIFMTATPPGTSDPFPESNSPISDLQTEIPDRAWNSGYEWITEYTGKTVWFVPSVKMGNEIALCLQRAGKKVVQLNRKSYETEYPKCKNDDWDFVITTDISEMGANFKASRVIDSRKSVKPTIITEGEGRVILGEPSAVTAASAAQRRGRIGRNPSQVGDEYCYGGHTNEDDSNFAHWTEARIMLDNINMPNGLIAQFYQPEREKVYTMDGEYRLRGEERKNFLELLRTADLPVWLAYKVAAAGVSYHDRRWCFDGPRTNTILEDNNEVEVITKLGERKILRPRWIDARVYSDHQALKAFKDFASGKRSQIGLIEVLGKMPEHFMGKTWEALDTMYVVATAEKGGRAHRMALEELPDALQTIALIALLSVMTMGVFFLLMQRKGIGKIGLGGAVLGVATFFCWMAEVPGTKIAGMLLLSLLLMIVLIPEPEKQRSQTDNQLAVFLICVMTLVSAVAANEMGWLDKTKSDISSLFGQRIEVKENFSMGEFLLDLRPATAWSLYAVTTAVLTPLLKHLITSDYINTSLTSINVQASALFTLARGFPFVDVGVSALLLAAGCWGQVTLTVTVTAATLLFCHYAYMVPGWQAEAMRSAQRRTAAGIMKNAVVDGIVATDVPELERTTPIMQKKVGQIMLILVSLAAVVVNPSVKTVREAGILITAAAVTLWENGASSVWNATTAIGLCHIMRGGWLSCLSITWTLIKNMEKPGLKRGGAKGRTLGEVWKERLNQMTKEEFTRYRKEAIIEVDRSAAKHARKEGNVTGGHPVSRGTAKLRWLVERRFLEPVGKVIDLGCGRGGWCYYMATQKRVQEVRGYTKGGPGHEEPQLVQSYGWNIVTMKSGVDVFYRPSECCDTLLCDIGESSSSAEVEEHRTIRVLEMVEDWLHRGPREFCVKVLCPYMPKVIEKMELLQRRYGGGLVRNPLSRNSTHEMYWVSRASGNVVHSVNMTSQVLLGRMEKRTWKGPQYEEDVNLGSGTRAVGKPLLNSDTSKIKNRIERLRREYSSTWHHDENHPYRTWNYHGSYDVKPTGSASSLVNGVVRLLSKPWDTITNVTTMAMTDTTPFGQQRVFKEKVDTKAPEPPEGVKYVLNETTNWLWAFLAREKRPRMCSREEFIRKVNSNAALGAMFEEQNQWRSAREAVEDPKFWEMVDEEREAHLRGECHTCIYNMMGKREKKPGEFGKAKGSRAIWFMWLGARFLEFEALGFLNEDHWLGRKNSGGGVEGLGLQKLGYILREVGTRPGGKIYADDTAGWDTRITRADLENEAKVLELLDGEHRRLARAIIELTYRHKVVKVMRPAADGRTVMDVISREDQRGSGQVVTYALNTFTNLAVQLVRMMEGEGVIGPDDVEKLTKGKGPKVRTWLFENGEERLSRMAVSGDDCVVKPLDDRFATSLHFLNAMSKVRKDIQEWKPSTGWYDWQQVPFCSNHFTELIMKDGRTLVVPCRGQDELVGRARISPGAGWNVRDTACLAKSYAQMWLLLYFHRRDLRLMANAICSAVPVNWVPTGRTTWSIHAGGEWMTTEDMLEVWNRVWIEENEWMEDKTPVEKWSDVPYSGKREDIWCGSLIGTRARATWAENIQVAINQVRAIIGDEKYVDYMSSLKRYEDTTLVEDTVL

B1: recombinant chimeric monoclonal antibody (mAb) 900, variant V4 (scFv-Fc, M252Y/S254T/T256E and H433K/N434F in the human IgG1 Fc) (antibody, V domains shown)
VH: EVQLQQSGAELVKPGASVKLSCKASGYIFTNYDINWVRQRPEQGLEWIGWIFPEDGRTKNNEKFKGKATLTTDKSSSTAYMQLSRLTSEDSAVYFCARGGGYGNYFDYWGQGTLVTVS
VL: DIVMTQAHKFMSTSVGDRVSITCKASQDVSTAVAWYQQKPGQSPKVLIYWASTRHTGVHDRFTGSGSGTDYTLTISSVQAEDLALYYCQQHYSNPLTFGAGTKLELK
Question: How did the Kd turn out when B1 was run?
Answer: ~2.3 nM
